From the RNAGym collection of RNA variant scans (doi:10.7554/elife.80360)

B1: Twister Ribozyme (parent)
chain: AACACUGCCAAUGCCGGUCCCAAGCCCGGAUAAAAGUGGAGGGGGCGG

Variants of: B1
Assay: self-cleavage, relative activity (ratio to wild type); higher = more cleavage; co-transcriptional

Variant | self-cleavage
GACACUGCCAAUGCCGGUCCCAAGACCGGAUAAAAGUGGAGGGGGCGG [A1G C25A] | 0.197
GACACUGCCAAUGCCGGUCCCAAGGCCGGAUAAAAGUGGAGGGGGCGG [A1G C25G] | 0.205
GACACUGCCAAUGCCGGUCCCAAGCCAGGAUAAAAGUGGAGGGGGCGG [A1G C27A] | 0.189
GACACUGCCAAUGCCGGUCCCAAGCCGGGAUAAAAGUGGAGGGGGCGG [A1G C27G] | 0.178
GACACUGCCAAUGCCGGUCCCAAGCCUGGAUAAAAGUGGAGGGGGCGG [A1G C27U] | 0.36
GACACUGCCAAUGCCGGUCCCAAGCCCGGAUAAAAGUGGAGGGGGUGG [A1G C46U] | 0.393
GACACUCCCAAUGCCGGUCCCAAGCCCGGAUAAAAGUGGAGGGGGCGG [A1G G7C] | 0.0808
GACACUGCCAAUACCGGUCCCAAGCCCGGAUAAAAGUGGAGGGGGCGG [A1G G13A] | 0.383
GACACUGCCAAUGCCAGUCCCAAGCCCGGAUAAAAGUGGAGGGGGCGG [A1G G16A] | 0.5
GACACUGCCAAUGCCUGUCCCAAGCCCGGAUAAAAGUGGAGGGGGCGG [A1G G16U] | 0.726
GACACUGCCAAUGCCGAUCCCAAGCCCGGAUAAAAGUGGAGGGGGCGG [A1G G17A] | 0.367
GACACUGCCAAUGCCGGUCCCAAACCCGGAUAAAAGUGGAGGGGGCGG [A1G G24A] | 0.144
GACACUGCCAAUGCCGGUCCCAACCCCGGAUAAAAGUGGAGGGGGCGG [A1G G24C] | 0.18
GACACUGCCAAUGCCGGUCCCAAGCCCUGAUAAAAGUGGAGGGGGCGG [A1G G28U] | 0.428
GACACUGCCAAUGCCGGUCCCAAGCCCGAAUAAAAGUGGAGGGGGCGG [A1G G29A] | 0.437
GACACUGCCAAUGCCGGUCCCAAGCCCGCAUAAAAGUGGAGGGGGCGG [A1G G29C] | 0.29
GACACUGCCAAUGCCGGUCCCAAGCCCGGAUAAAACUGGAGGGGGCGG [A1G G36C] | 0.227
GACACUGCCAAUGCCGGUCCCAAGCCCGGAUAAAAGUAGAGGGGGCGG [A1G G38A] | 0.432
GACACUGCCAAUGCCGGUCCCAAGCCCGGAUAAAAGUGUAGGGGGCGG [A1G G39U] | 0.198
GACACUGCCAAUGCCGGUCCCAAGCCCGGAUAAAAGUGGAUGGGGCGG [A1G G41U] | 0.228
GACACUGCCAAUGCCGGUCCCAAGCCCGGAUAAAAGUGGAGGAGGCGG [A1G G43A] | 0.176
GACACUGCCAAUGCCGGUCCCAAGCCCGGAUAAAAGUGGAGGUGGCGG [A1G G43U] | 0.243
GACACUGCCAAUGCCGGUCCCAAGCCCGGAUAAAAGUGGAGGGCGCGG [A1G G44C] | 0.251
GACACUGCCAAUGCCGGUCCCAAGCCCGGAUAAAAGUGGAGGGUGCGG [A1G G44U] | 0.287
GACACUGCCAAUGCCGGUCCCAAGCCCGGAUAAAAGUGGAGGGGACGG [A1G G45A] | 0.32
GACACUGCCAAUGCCGGUCCCAAGCCCGGAUAAAAGUGGAGGGGCCGG [A1G G45C] | 0.254
GACACUGCCAAUGCCGGUCCCAAGCCCGGAUAAAAGUGGAGGGGGCAG [A1G G47A] | 0.334

Variant | self-cleavage
GACACUGCCAAUGCCGGUCCCAAGCCCGGAUAAAAGUGGAGGGGGCCG [A1G G47C] | 0.385
GACACUGCCAAUGCCGGUCCCAAGCCCGGAUAAAAGUGGAGGGGGCUG [A1G G47U] | 0.278
GACACUGCCAAUGCCGGUCCCAAGCCCGGAUAAAAGUGGAGGGGGCGA [A1G G48A] | 0.414
GACACUGCCAAUGCCGGUCCCAAGCCCGGAUAAAAGUGGAGGGGGCGU [A1G G48U] | 0.409
GACACAGCCAAUGCCGGUCCCAAGCCCGGAUAAAAGUGGAGGGGGCGG [A1G U6A] | 0.346
GACACCGCCAAUGCCGGUCCCAAGCCCGGAUAAAAGUGGAGGGGGCGG [A1G U6C] | 0.202
GACACGGCCAAUGCCGGUCCCAAGCCCGGAUAAAAGUGGAGGGGGCGG [A1G U6G] | 0.0944
GACACUGCCAAAGCCGGUCCCAAGCCCGGAUAAAAGUGGAGGGGGCGG [A1G U12A] | 0.515
GACACUGCCAACGCCGGUCCCAAGCCCGGAUAAAAGUGGAGGGGGCGG [A1G U12C] | 0.45
GACACUGCCAAGGCCGGUCCCAAGCCCGGAUAAAAGUGGAGGGGGCGG [A1G U12G] | 0.527
GACACUGCCAAUGCCGGUCCCAAGCCCGGAAAAAAGUGGAGGGGGCGG [A1G U31A] | 0.24
GACACUGCCAAUGCCGGUCCCAAGCCCGGACAAAAGUGGAGGGGGCGG [A1G U31C] | 0.409
GACACUGCCAAUGCCGGUCCCAAGCCCGGAGAAAAGUGGAGGGGGCGG [A1G U31G] | 0.533
GACACUGCCAAUGCCGGUCCCAAGCCCGGAUAAAAGCGGAGGGGGCGG [A1G U37C] | 0.192
UCCACUGCCAAUGCCGGUCCCAAGCCCGGAUAAAAGUGGAGGGGGCGG [A1U A2C] | 0.118
UGCACUGCCAAUGCCGGUCCCAAGCCCGGAUAAAAGUGGAGGGGGCGG [A1U A2G] | 0.0622
UACGCUGCCAAUGCCGGUCCCAAGCCCGGAUAAAAGUGGAGGGGGCGG [A1U A4G] | 0.0751
UACUCUGCCAAUGCCGGUCCCAAGCCCGGAUAAAAGUGGAGGGGGCGG [A1U A4U] | 0.0259
UACACUGCCCAUGCCGGUCCCAAGCCCGGAUAAAAGUGGAGGGGGCGG [A1U A10C] | 0.0358
UACACUGCCUAUGCCGGUCCCAAGCCCGGAUAAAAGUGGAGGGGGCGG [A1U A10U] | 0.0883
UACACUGCCACUGCCGGUCCCAAGCCCGGAUAAAAGUGGAGGGGGCGG [A1U A11C] | 0.0741
UACACUGCCAGUGCCGGUCCCAAGCCCGGAUAAAAGUGGAGGGGGCGG [A1U A11G] | 0.0739
UACACUGCCAAUGCCGGUCCCCAGCCCGGAUAAAAGUGGAGGGGGCGG [A1U A22C] | 0.0885
UACACUGCCAAUGCCGGUCCCAUGCCCGGAUAAAAGUGGAGGGGGCGG [A1U A23U] | 0.0522
UACACUGCCAAUGCCGGUCCCAAGCCCGGUUAAAAGUGGAGGGGGCGG [A1U A30U] | 0.0367
UACACUGCCAAUGCCGGUCCCAAGCCCGGAUACAAGUGGAGGGGGCGG [A1U A33C] | 0.0396
UACACUGCCAAUGCCGGUCCCAAGCCCGGAUAUAAGUGGAGGGGGCGG [A1U A33U] | 0.0603
